Values quoted from earlier work, collected in patent publication US20230220007A1, “SETD7 EPIGENETIC MODULATORS” (Biorchestra Co., Ltd., priority 2020, published 2023).

System: histone
Settings: cited from earlier work; for monomethyl transferase activity: SETD7 substitution mutants; for histone monomethyl transferase activity: mutagenic studies on SETD7

Molecule | monomethyl transferase activity | histone monomethyl transferase activity | also measured
Y245A: SETD7 substitution mutant at position 245 (protein) MDSDDEMVEEAVEGHLDDDGLPHGFCTVTYSSTDRFEGNFVHGEKNGRGKFFFFDGSTLEGYYVDDALQGQGVYTYEDGGVLQGTYVDGELNGPAQEYDTDGRLIFKGQYKDNIRHGVCWIYYPDGGSLVGEVNEDGEMTGEKIAYVYPDERTALYGKFIDGEMIEGKLATLMSTEEGRPHFELMPGNSVYHFDKSTSSCISTNALLPDPYESERVYVAESLISSAGEGLFSKVAVGPNTVMSFANGVRITHQEVDSRDWALNGNTLSLDEETVIDVPEPYNHVSKYCASLGHKANHSFTPNCIYDMFVHPRFGPIKCIRTLRAVEADEELTVAYGYDHSPPGKSGPEAPEWYQVELKAFQATQQK | significantly reduces | partial or complete loss | dimethyltransferase activity: increases
E330A: SETD7 substitution mutant at position 330 (protein) MDSDDEMVEEAVEGHLDDDGLPHGFCTVTYSSTDRFEGNFVHGEKNGRGKFFFFDGSTLEGYYVDDALQGQGVYTYEDGGVLQGTYVDGELNGPAQEYDTDGRLIFKGQYKDNIRHGVCWIYYPDGGSLVGEVNEDGEMTGEKIAYVYPDERTALYGKFIDGEMIEGKLATLMSTEEGRPHFELMPGNSVYHFDKSTSSCISTNALLPDPYESERVYVAESLISSAGEGLFSKVAVGPNTVMSFYNGVRITHQEVDSRDWALNGNTLSLDEETVIDVPEPYNHVSKYCASLGHKANHSFTPNCIYDMFVHPRFGPIKCIRTLRAVEADEALTVAYGYDHSPPGKSGPEAPEWYQVELKAFQATQQK | – | partial or complete loss | –
E329A: SETD7 substitution mutant at position 329 (protein) MDSDDEMVEEAVEGHLDDDGLPHGFCTVTYSSTDRFEGNFVHGEKNGRGKFFFFDGSTLEGYYVDDALQGQGVYTYEDGGVLQGTYVDGELNGPAQEYDTDGRLIFKGQYKDNIRHGVCWIYYPDGGSLVGEVNEDGEMTGEKIAYVYPDERTALYGKFIDGEMIEGKLATLMSTEEGRPHFELMPGNSVYHFDKSTSSCISTNALLPDPYESERVYVAESLISSAGEGLFSKVAVGPNTVMSFYNGVRITHQEVDSRDWALNGNTLSLDEETVIDVPEPYNHVSKYCASLGHKANHSFTPNCIYDMFVHPRFGPIKCIRTLRAVEADAELTVAYGYDHSPPGKSGPEAPEWYQVELKAFQATQQK | – | partial or complete loss | –
E254A: SETD7 substitution mutant at position 254 (protein) MDSDDEMVEEAVEGHLDDDGLPHGFCTVTYSSTDRFEGNFVHGEKNGRGKFFFFDGSTLEGYYVDDALQGQGVYTYEDGGVLQGTYVDGELNGPAQEYDTDGRLIFKGQYKDNIRHGVCWIYYPDGGSLVGEVNEDGEMTGEKIAYVYPDERTALYGKFIDGEMIEGKLATLMSTEEGRPHFELMPGNSVYHFDKSTSSCISTNALLPDPYESERVYVAESLISSAGEGLFSKVAVGPNTVMSFYNGVRITHQAVDSRDWALNGNTLSLDEETVIDVPEPYNHVSKYCASLGHKANHSFTPNCIYDMFVHPRFGPIKCIRTLRAVEADEELTVAYGYDHSPPGKSGPEAPEWYQVELKAFQATQQK | – | partial or complete loss | –
D270A: SETD7 substitution mutant at position 270 (protein) MDSDDEMVEEAVEGHLDDDGLPHGFCTVTYSSTDRFEGNFVHGEKNGRGKFFFFDGSTLEGYYVDDALQGQGVYTYEDGGVLQGTYVDGELNGPAQEYDTDGRLIFKGQYKDNIRHGVCWIYYPDGGSLVGEVNEDGEMTGEKIAYVYPDERTALYGKFIDGEMIEGKLATLMSTEEGRPHFELMPGNSVYHFDKSTSSCISTNALLPDPYESERVYVAESLISSAGEGLFSKVAVGPNTVMSFYNGVRITHQEVDSRDWALNGNTLSLAEETVIDVPEPYNHVSKYCASLGHKANHSFTPNCIYDMFVHPRFGPIKCIRTLRAVEADEELTVAYGYDHSPPGKSGPEAPEWYQVELKAFQATQQK | – | partial or complete loss | –
Y353A: SETD7 substitution mutant at position 353 (protein) MDSDDEMVEEAVEGHLDDDGLPHGFCTVTYSSTDRFEGNFVHGEKNGRGKFFFFDGSTLEGYYVDDALQGQGVYTYEDGGVLQGTYVDGELNGPAQEYDTDGRLIFKGQYKDNIRHGVCWIYYPDGGSLVGEVNEDGEMTGEKIAYVYPDERTALYGKFIDGEMIEGKLATLMSTEEGRPHFELMPGNSVYHFDKSTSSCISTNALLPDPYESERVYVAESLISSAGEGLFSKVAVGPNTVMSFYNGVRITHQEVDSRDWALNGNTLSLDEETVIDVPEPYNHVSKYCASLGHKANHSFTPNCIYDMFVHPRFGPIKCIRTLRAVEADEELTVAYGYDHSPPGKSGPEAPEWAQVELKAFQATQQK | complete loss | – | –
N302A: SETD7 substitution mutant at position 302 (protein) MDSDDEMVEEAVEGHLDDDGLPHGFCTVTYSSTDRFEGNFVHGEKNGRGKFFFFDGSTLEGYYVDDALQGQGVYTYEDGGVLQGTYVDGELNGPAQEYDTDGRLIFKGQYKDNIRHGVCWIYYPDGGSLVGEVNEDGEMTGEKIAYVYPDERTALYGKFIDGEMIEGKLATLMSTEEGRPHFELMPGNSVYHFDKSTSSCISTNALLPDPYESERVYVAESLISSAGEGLFSKVAVGPNTVMSFYNGVRITHQEVDSRDWALNGNTLSLDEETVIDVPEPYNHVSKYCASLGHKANHSFTPACIYDMFVHPRFGPIKCIRTLRAVEADEELTVAYGYDHSPPGKSGPEAPEWYQVELKAFQATQQK | – | partial or complete loss | –
H297A: SETD7 mutant protein with H297A mutation, abolishes methyltransferase activity (protein) MDSDDEMVEEAVEGHLDDDGLPHGFCTVTYSSTDRFEGNFVHGEKNGRGKFFFFDGSTLEGYYVDDALQGQGVYTYEDGGVLQGTYVDGELNGPAQEYDTDGRLIFKGQYKDNIRHGVCWIYYPDGGSLVGEVNEDGEMTGEKIAYVYPDERTALYGKFIDGEMIEGKLATLMSTEEGRPHFELMPGNSVYHFDKSTSSCISTNALLPDPYESERVYVAESLISSAGEGLFSKVAVGPNTVMSFYNGVRITHQEVDSRDWALNGNTLSLDEETVIDVPEPYNHVSKYCASLGHKANASFTPNCIYDMFVHPRFGPIKCIRTLRAVEADEELTVAYGYDHSPPGKSGPEAPEWYQVELKAFQATQQK | – | partial or complete loss | methyltransferase activity (enzymatic activity) (His297 mutation): abolishes
W352A: SETD7 substitution mutant at position 352 (protein) MDSDDEMVEEAVEGHLDDDGLPHGFCTVTYSSTDRFEGNFVHGEKNGRGKFFFFDGSTLEGYYVDDALQGQGVYTYEDGGVLQGTYVDGELNGPAQEYDTDGRLIFKGQYKDNIRHGVCWIYYPDGGSLVGEVNEDGEMTGEKIAYVYPDERTALYGKFIDGEMIEGKLATLMSTEEGRPHFELMPGNSVYHFDKSTSSCISTNALLPDPYESERVYVAESLISSAGEGLFSKVAVGPNTVMSFYNGVRITHQEVDSRDWALNGNTLSLDEETVIDVPEPYNHVSKYCASLGHKANHSFTPNCIYDMFVHPRFGPIKCIRTLRAVEADEELTVAYGYDHSPPGKSGPEAPEAYQVELKAFQATQQK | complete loss | – | –
N296A: SETD7 substitution mutant at position 296 (protein) MDSDDEMVEEAVEGHLDDDGLPHGFCTVTYSSTDRFEGNFVHGEKNGRGKFFFFDGSTLEGYYVDDALQGQGVYTYEDGGVLQGTYVDGELNGPAQEYDTDGRLIFKGQYKDNIRHGVCWIYYPDGGSLVGEVNEDGEMTGEKIAYVYPDERTALYGKFIDGEMIEGKLATLMSTEEGRPHFELMPGNSVYHFDKSTSSCISTNALLPDPYESERVYVAESLISSAGEGLFSKVAVGPNTVMSFYNGVRITHQEVDSRDWALNGNTLSLDEETVIDVPEPYNHVSKYCASLGHKAAHSFTPNCIYDMFVHPRFGPIKCIRTLRAVEADEELTVAYGYDHSPPGKSGPEAPEWYQVELKAFQATQQK | – | partial or complete loss | –
E351A: SETD7 substitution mutant at position 351 (protein) MDSDDEMVEEAVEGHLDDDGLPHGFCTVTYSSTDRFEGNFVHGEKNGRGKFFFFDGSTLEGYYVDDALQGQGVYTYEDGGVLQGTYVDGELNGPAQEYDTDGRLIFKGQYKDNIRHGVCWIYYPDGGSLVGEVNEDGEMTGEKIAYVYPDERTALYGKFIDGEMIEGKLATLMSTEEGRPHFELMPGNSVYHFDKSTSSCISTNALLPDPYESERVYVAESLISSAGEGLFSKVAVGPNTVMSFYNGVRITHQEVDSRDWALNGNTLSLDEETVIDVPEPYNHVSKYCASLGHKANHSFTPNCIYDMFVHPRFGPIKCIRTLRAVEADEELTVAYGYDHSPPGKSGPEAPAWYQVELKAFQATQQK | partial loss | – | –
Q354A: SETD7 substitution mutant at position 354 (protein) MDSDDEMVEEAVEGHLDDDGLPHGFCTVTYSSTDRFEGNFVHGEKNGRGKFFFFDGSTLEGYYVDDALQGQGVYTYEDGGVLQGTYVDGELNGPAQEYDTDGRLIFKGQYKDNIRHGVCWIYYPDGGSLVGEVNEDGEMTGEKIAYVYPDERTALYGKFIDGEMIEGKLATLMSTEEGRPHFELMPGNSVYHFDKSTSSCISTNALLPDPYESERVYVAESLISSAGEGLFSKVAVGPNTVMSFYNGVRITHQEVDSRDWALNGNTLSLDEETVIDVPEPYNHVSKYCASLGHKANHSFTPNCIYDMFVHPRFGPIKCIRTLRAVEADEELTVAYGYDHSPPGKSGPEAPEWYAVELKAFQATQQK | partial loss | – | –
Y335A: SETD7 substitution mutant at position 335 (protein) MDSDDEMVEEAVEGHLDDDGLPHGFCTVTYSSTDRFEGNFVHGEKNGRGKFFFFDGSTLEGYYVDDALQGQGVYTYEDGGVLQGTYVDGELNGPAQEYDTDGRLIFKGQYKDNIRHGVCWIYYPDGGSLVGEVNEDGEMTGEKIAYVYPDERTALYGKFIDGEMIEGKLATLMSTEEGRPHFELMPGNSVYHFDKSTSSCISTNALLPDPYESERVYVAESLISSAGEGLFSKVAVGPNTVMSFYNGVRITHQEVDSRDWALNGNTLSLDEETVIDVPEPYNHVSKYCASLGHKANHSFTPNCIYDMFVHPRFGPIKCIRTLRAVEADEELTVAAGYDHSPPGKSGPEAPEWYQVELKAFQATQQK | – | partial or complete loss | –
